For assay [1], the target named is cell-surface mucins (on HeLa cells). The assay is described as follows: flow cytometry on cells; HeLa cells treated with His-tagged mucinases in cold FACS buffer (0.5% BSA in PBS) with 2 mM EDTA and 0.1% benzonase, 30 min on ice (4 °C); EDTA prevents enzyme activity; bound enzyme detected with FITC anti-His; effective (apparent) Kd from fits of normalised MFI.
The target is the same in assay [2]. Briefly: flow cytometry on cells (anti-His staining, HeLa). Particulars: 30 min at 4 °C in the presence of EDTA, n = 3 biologically independent replicates, read off a plot.

Consider 6 substances from paper PMC11018308.

With “ddStcE^W366A, engineered StcE (from UniProt O82882 36-898) (enzyme)”, the Kd in assay [1] turned out to be 2000 nM.
With “StcE, zinc metalloprotease (mucinase) from Escherichia coli serotype O157:H7 (from UniProt O82882) W366F”, the Kd in assay [2] (parent: est. 130 nM) came out at 95 nM.
For “ddStcE^H367A (from UniProt O82882 36-898) (enzyme)”, the Kd in assay [1] was found to be 2000 nM.
As for “StcE, zinc metalloprotease (mucinase) from Escherichia coli serotype O157:H7 (from UniProt O82882) Y457W”, the Kd in assay [2] (parent: est. 130 nM) amounted to 120 nM.
Turning to “StcE, zinc metalloprotease (mucinase) from Escherichia coli serotype O157:H7 (from UniProt O82882) Y457A”, the Kd in assay [2] (parent: est. 130 nM) was 120 nM.
In the case of “double deletion StcE (ΔC and ΔINS) (from UniProt O82882) Y457A”, in assay [2] (parent: est. 1300 nM), the Kd was 1300 nM.
